Substrate: NCCc1c[nH]c2ccc(O)cc12
Assay: HPLC-fluorescence detection of N-acetylserotonin; Lineweaver-Burk plot
Type: biochemical, Pyropia yezoensis
Conditions: acetyl-CoA co-substrate (0.5 mM in standard assay), 100 mM potassium phosphate pH 8.8, 55 °C

B1: PySNAT (Pyropia yezoensis; I2V) (protein)
chain: MVFWKNFFQNSNINASSEKNFKKLIVLDKTCDKIEFKDIYLSSNKNINLYELEQLCDSVGWVKRPLKKVKIALKNSSIIISLIQKKDANSKLVGFARATSDNGFNATIWDVVIHPDFQGLGLGKVVIHQLIQQLRQAEISTITLFAEPDVVSFYKKLGFIKDPDGVKGMFWYPR
notes: full-length chloroplast-encoded protein, 174 aa, calculated 20099 Da, C-terminal His tag kept (pET28b NcoI/XhoI), E. coli BL21(DE3), Ni-NTA; no transit peptide; I2V read from the printed NcoI forward primer (ATG GTC for native ATG ATC)
  Km: 467 µM

From paper PMC4321536, “Chloroplast-encoded serotonin N-acetyltransferase in the red alga Pyropia yezoensis: gene transition to the nucleus from chloroplasts” (Journal of Experimental Botany, 2014)
